Results from US20260166140A1, “Combinations Involving Epidermal Growth Factor Receptor Tyrosine Kinase Inhibitors For the Treatment of Cancer” (AstraZeneca AB, priority 2022, published 2026).
Positions count from the first letter of the chain named.

Key:
Semaphorin 3a = molecular target: T1, Semaphorin 3a (UniProt Q14563 21-771, limits assumed); test: ELISA: antigen coated at 1 ug/mL, antibody dilution series, goat anti-human Fab-HRP, A450; panel Human Sema3a
T1 construct: also called Sema 3a
T1 sequence (looked up): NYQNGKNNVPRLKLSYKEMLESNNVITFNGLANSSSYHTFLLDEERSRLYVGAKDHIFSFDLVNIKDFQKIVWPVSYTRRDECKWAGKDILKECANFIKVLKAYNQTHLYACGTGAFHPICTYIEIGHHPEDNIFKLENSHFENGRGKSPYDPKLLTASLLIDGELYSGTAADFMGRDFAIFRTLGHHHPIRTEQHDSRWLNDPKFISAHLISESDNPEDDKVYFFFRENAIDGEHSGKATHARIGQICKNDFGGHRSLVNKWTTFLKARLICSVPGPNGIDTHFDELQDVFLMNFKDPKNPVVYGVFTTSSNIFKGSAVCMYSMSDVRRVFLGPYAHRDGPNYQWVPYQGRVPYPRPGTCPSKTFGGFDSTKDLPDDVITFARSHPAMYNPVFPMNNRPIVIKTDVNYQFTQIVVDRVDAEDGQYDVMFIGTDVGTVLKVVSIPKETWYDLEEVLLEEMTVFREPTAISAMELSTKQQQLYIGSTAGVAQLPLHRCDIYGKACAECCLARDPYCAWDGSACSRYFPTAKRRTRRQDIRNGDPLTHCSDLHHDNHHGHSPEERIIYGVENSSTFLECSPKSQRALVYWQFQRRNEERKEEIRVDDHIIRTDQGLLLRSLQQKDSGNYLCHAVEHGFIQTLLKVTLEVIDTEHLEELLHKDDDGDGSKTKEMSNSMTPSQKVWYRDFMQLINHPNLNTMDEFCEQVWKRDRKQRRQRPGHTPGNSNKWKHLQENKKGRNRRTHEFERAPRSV

H1975 cells = test: Internalization of AF647-labeled antibodies, live cell confocal fluorescence microscopy; assay type: cell-based; details: for internalization half-times: images every 5 min
Method: Internalization kinetics of AlexaFluor647 (AF647) primary-labeled DuetMabs: RAA22/B09 and QD6/B09 antibodies was assessed in vitro using the EGFR and c-MET expressing cell line, H1975. Each antibody was pre-bound to cells and antibody translocation from cell surface to cytoplasm was then monitored using live cell confocal fluorescence microscopy. Both antibodies localized primarily on the cell surface before (T=0) subjecting to internalization conditions and were translocated to the cytoplasm area after 1 hour (data not shown). Kinetic images were taken every 5 min over the time course of internalization and were processed using a quantitative algorithm to determine internalization kinetic constants and half-times.
To evaluate the mode of antibody internalization and to investigate contribution of each arm to overall internalization of the DuetMabs, we evaluated internalization of single-arm specific control antibody molecules, QD6/IgG and B09/IgG, against duet QD6/B09, and RAA22/IgG and B09/IgG against duet RAA22/B09 in H1975 cells, which express both EGFR and c-MET. Since only one arm is specific for the target receptor, the control antibody can only internalize via one receptor eliminating dual receptor targeting and cross-linking as mode of internalization.

HER3 = molecular target: T2, HER3 (UniProt P21860 20-643, limits assumed); test: ELISA: antigen coated at 1 ug/mL, antibody dilution series, goat anti-human Fab-HRP, A450; panel Human HER3
T2 construct: also called EGFR HER family protein HER3

Ron (CD136) = Ron (CD136) (UniProt Q04912 25-957, limits assumed); test: ELISA: antigen coated at 1 ug/mL, antibody dilution series, goat anti-human Fab-HRP, A450; panel Human Ron (CD136)
[1] = molecular target: EGFR and c-MET co-expressed on cells (HCC827, H1975); test: live cell confocal fluorescence microscopy, AF647-labelled antibody pre-bound to HCC827 cells
HER4 = molecular target: T3, HER4 (UniProt Q15303 26-649, limits assumed); test: ELISA: antigen coated at 1 ug/mL, antibody dilution series, goat anti-human Fab-HRP, A450; panel Human HER4
T3 construct: also called EGFR HER family protein HER4
T3 sequence (looked up): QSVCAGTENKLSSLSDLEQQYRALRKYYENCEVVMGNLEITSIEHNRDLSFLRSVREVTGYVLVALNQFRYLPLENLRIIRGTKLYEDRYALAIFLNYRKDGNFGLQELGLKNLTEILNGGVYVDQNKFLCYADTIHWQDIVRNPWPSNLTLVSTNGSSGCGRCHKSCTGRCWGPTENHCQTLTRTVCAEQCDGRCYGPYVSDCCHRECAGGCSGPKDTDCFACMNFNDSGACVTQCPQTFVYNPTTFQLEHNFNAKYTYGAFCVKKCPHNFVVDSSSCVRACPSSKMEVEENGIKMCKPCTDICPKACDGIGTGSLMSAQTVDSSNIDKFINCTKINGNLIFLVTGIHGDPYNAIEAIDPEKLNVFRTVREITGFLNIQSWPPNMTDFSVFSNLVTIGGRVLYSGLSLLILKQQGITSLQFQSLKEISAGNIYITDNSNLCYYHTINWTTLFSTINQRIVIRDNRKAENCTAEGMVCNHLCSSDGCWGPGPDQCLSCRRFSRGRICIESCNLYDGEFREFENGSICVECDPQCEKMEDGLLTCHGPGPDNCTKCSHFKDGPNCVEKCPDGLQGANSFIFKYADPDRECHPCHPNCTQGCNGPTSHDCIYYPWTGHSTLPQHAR

[2] = molecular target: T4, Human EGFR (recombinant, soluble monomeric) (human, UniProt P00533 25-645); test: SPR, Biacore T200, antibody captured on anti-human IgG, soluble monomeric antigen as analyte, 25 C
T4 construct: also called EGFR antigen

[3] = molecular target: EGFR and c-MET co-expressed on cells (HCC827, H1975); test: live cell confocal fluorescence microscopy, AF647-labelled antibody pre-bound to cells
[4] = molecular target: EGFR and c-MET co-expressed on cells (HCC827, H1975); test: live cell confocal fluorescence microscopy, AF647-labelled antibody pre-bound to H1975 cells

B1: RAA22/B09-57 DuetMab (bispecific antibody, human IgG1, kappa, lambda)
heavy 1: QVQLVQSGAEVKKPGSSVKVSCKASGGTFSDNDFSWVRQAPGQGLEWMGAIVAVFRTETYAQKFQDRVKITADISTRTTYMELSSLRSEDTAVYYCARRLMSAISGPGAPLLMWGQGTLVTVSSASTKGPSVFPLAPSSKSTSGGTAALGCLVKDYFPEPVTVSWNSGALTSGVHTFPAVLQSSGLYSLSSVVTVPSSSLGTQTYICNVNHKPSNTKVDKRVEPKSCDKTHTCPPCPAPELLGGPSCVFLFPPKPKDTLMISRTPEVTCVVVDVSHEDPEVKFNWYVDGVEVHNAKTKPREEQYNSTYRVVSVLTVLHQDWLNGKEYKCKVSNKALPAPIEKTISKAKGQPREPQVCTLPPSREEMTKNQVSLSCAVKGFYPSDIAVEWESNGQPENNYKTTPPVLDSDGSFFLVSKLTVDKSRWQQGNVFSCSVMHEALHNHYTQKSLSLSPGK
heavy 2: QVQLVQSGAEVKKPGASVKVSCKASGYTFTDYYIHWVRQATGQGLEWMGWMNPNSGNTGYAQKFQGRVTMTRDTSISTAYMELSSLRSEDTAVYYCARGQGYTHSWGQGTMVTVSSASTKGPSVCPLAPSSKSTSGGTAALGCLVKDYFPEPVTVSWNSGALTSGVHTFPAVLQSSGLYSLSSVVTVPSSSLGTQTYICNVNHKPSNTKVDKRVEPKSVDKTHTCPPCPAPELLGGPSCVFLFPPKPKDTLMISRTPEVTCVVVDVSHEDPEVKFNWYVDGVEVHNAKTKPREEQYNSTYRVVSVLTVLHQDWLNGKEYKCKVSNKALPAPIEKTISKAKGQPREPQVYTLPPCREEMTKNQVSLWCLVKGFYPSDIAVEWESNGQPENNYKTTPPVLDSDGSFFLYSKLTVDKSRWQQGNVFSCSVMHEALHNHYTQKSLSLSPG
light 1: QSALTQPRSVSGSPGQSVTISCTGTSSDVGGYNYVSWYQQHPGKAPKLMIYDVSKRPSGVPDRFSGSKSGNTASLTISGLQAEDEADYYCSSYTSSDTLEIFGGGTKLTVLGQPKAAPSVTLFPPSSEELQANKATLVCLISDFYPGAVTVAWKADSSPVKAGVETTTPSKQSNNKYAASSYLSLTPEQWKSHRSYSCQVTHEGSTVEKTVAPTECS
light 2: DIQMTQSPSTLSASVGDRVTITCRASEGIYHWLAWYQQKPGKAPKLLIYKASSLASGVPSRFSGSGSGTEFTLTISSLQPDDFATYYCQQYSNYPPTFGGGTKLEIKRTVAAPSVFIFPPCDEQLKSGTASVVCLLNNFYPREAKVQWKVDNALQSGNSQESVTEQDSKDSTYSLSSTLTLSKADYEKHKVYACEVTHQGLSSPVTKSFNRGEV
notes: also called monovalent bispecific EGFR/cMET DuetMAb RAA22/B09; RAA22/B09-Maia
With B1 the binding result (Semaphorin 3a) was “no binding (tested: 10 ug/ml)”, the “binding at T=0” value (H1975 cells) was 3.5×10^6 MFI and the “cytoplasmic intensity values, fold higher than B09-IgG” value (H1975 cells) was 4.70 fold. For the same molecule, the “cytoplasmic intensity values, fold higher than RAA22-IgG” value (H1975 cells) was 10.98 fold, the internalization half-times (H1975 cells) was 43.2 ± 15.5 min and the binding result (HER3) was “no binding (tested: 10 ug/ml)”. The binding result (Ron (CD136)) was “no binding (tested: 10 ug/ml)”, the MFI at T=0 [1] was 3.1e+07 MFI and the binding result (HER4) was “no binding (tested: 10 ug/ml)”. For the same molecule, the Kd [2] was 45 nM, the koff [2] was 0.00201 s⁻¹ and the kon [2] was 44700 M⁻¹ s⁻¹. The fold binding, HCC827 cells against H1975 cells [3] was 8.9 fold and the MFI at T=0 [4] was 3.5e+06 MFI.

B2: QD6/B09-57 DuetMab (bispecific antibody, human IgG1, kappa, lambda)
heavy 1: B1 heavy 1 with F55V
heavy 2: B1 heavy 2
light 1: B1 light 1 with K55E, S91F
light 2: B1 light 2
notes: also called monovalent bispecific EGFR/cMET DuetMAb QD6/B09
With B2 the binding result (Semaphorin 3a) was “no binding (tested: 10 ug/ml)”, the internalization half-times (H1975 cells) was 37.5 ± 10.6 min and the binding result (HER3) was “no binding (tested: 10 ug/ml)”. For the same molecule, the binding result (HER4) was “no binding (tested: 10 ug/ml)”, the Kd [2] was 5.9 nM and the koff [2] was 0.000374 s⁻¹. The kon [2] was 63500 M⁻¹ s⁻¹.
